Experimental data published in PMC3409459, “Absorption, distribution, metabolism and excretion of peginesatide, a novel erythropoiesis-stimulating agent, in rats” (Xenobiotica; the Fate of Foreign Compounds in Biological …, 2011).

Assay: Tissue distribution of radioactivity by LSC following combustion, albino rats
Type: in vivo, male Sprague-Dawley (albino) rats
Settings: for Concentration of the radioactivity, Pituitary / Concentration of the radioactivity, Plasma / Concentration of the radioactivity, Skeletal muscle / Concentration of the radioactivity, Skin / Concentration of the radioactivity, Spinal cord / Concentration of the radioactivity, Spleen / Concentration of the radioactivity, Stomach / Concentration of the radioactivity, Submandibular lymph nodes / Concentration of the radioactivity, Testes / Concentration of the radioactivity, Thymus / Concentration of the radioactivity, Thyroid gland / Concentration of the radioactivity, Urinary bladder / Concentration of the radioactivity, Adrenals / Concentration of the radioactivity, Blood / Concentration of the radioactivity, Bone (femur) / Concentration of the radioactivity, Bone marrow / Concentration of the radioactivity, Brain / Concentration of the radioactivity, Eyes / Concentration of the radioactivity, Fat / Concentration of the radioactivity, Harderian glands / Concentration of the radioactivity, Heart / Concentration of the radioactivity, Intestine / Concentration of the radioactivity, Kidneys / Concentration of the radioactivity, Liver / Concentration of the radioactivity, Lungs / Concentration of the radioactivity, Pancreas: mean ± SD, n=3; for tissue to plasma ratios: single IV 5 mg·kg^−1
Experimental: Total captured radioactivity was subsequently measured via LSC.
Male Sprague-Dawley (albino) rats (n = 21; three per time point) were administered a single IV dose of 5 mg·kg^−1 [^14C]-peginesatide (27.5 μCi/kg) and tissue concentrations of radioactivity determined at 0.25, 6, and 24 h, and 7,14,30 and 60 days following dosing. Similarly, male Long Evans (pigmented) rats (n = 21; three per time point) were administered a single IV dose of 5 mg-kg^−1 [^14C]-peginesatide and plasma, skin, and eye concentrations of radioactivity were measured at the various time points through 60 days after dosing. At each time point, blood was collected, the animals sacrificed, and tissues excised. Tissues collected from the Sprague-Dawley rats included blood, plasma, adrenals, bone marrow, brain, eyes, fat, femur, Harderian glands, heart, hypophysis, intestine, kidneys, lungs, liver, pancreas, skeletal muscle, skin, spinal cord, spleen, stomach, submaxillary glands, testes, thymus, thyroid gland, and urinary bladder. Plasma, eyes, non-pigmented skin, and pigmented skin were collected from Long Evans rats. All tissue samples were measured for radioactivity by LSC following combustion. The liver and intestine were first homogenized in distilled water (20% w/v) prior to analysis. The concentration of radioactivity in the blood, plasma, and tissues was calculated and expressed as ug equiv·g^-1 or mLbased on the LSC counts and the specific activity of the dosing solution.

[1] = 60 Days after single IV 5 mg·kg^−1, LSC
[2] = 0.25 h after single IV 5 mg·kg^−1, LSC
[3] = 6 h after single IV 5 mg·kg^−1, LSC
[4] = 24 h after single IV 5 mg·kg^−1, LSC

## Peginesatide
[1]
  Concentration of the radioactivity, Pituitary: 4.32 ± 0.289 μg equiv·g^−1 or mL
  Concentration of the radioactivity, Plasma: 0.232 ± 0.042 μg equiv·g^−1 or mL
  Concentration of the radioactivity, Skeletal muscle: 0.085 ± 0.021 μg equiv·g^−1 or mL
  Concentration of the radioactivity, Skin: 0.394 ± 0.080 μg equiv·g^−1 or mL
  Concentration of the radioactivity, Spinal cord: 0.036 ± 0.018 μg equiv·g^−1 or mL
  Concentration of the radioactivity, Spleen: 3.40 ± 0.480 μg equiv·g^−1 or mL
  Concentration of the radioactivity, Stomach: 0.590 ± 0.242 μg equiv·g^−1 or mL
  Concentration of the radioactivity, Submandibular lymph nodes: 8.74 ± 1.22 μg equiv·g^−1 or mL
  Concentration of the radioactivity, Testes: 5.10 ± 2.17 μg equiv·g^−1 or mL
  Concentration of the radioactivity, Thymus: 1.15 ± 0.155 μg equiv·g^−1 or mL
  Concentration of the radioactivity, Thyroid gland: 8.03 ± 1.45 μg equiv·g^−1 or mL
  Concentration of the radioactivity, Urinary bladder: 0.967 ± 0.188 μg equiv·g^−1 or mL
[2]
  Concentration of the radioactivity, Adrenals: 8.45 ± 0.517 μg equiv·g^−1 or mL
  Concentration of the radioactivity, Blood: 80.9 ± 1.90 μg equiv·g^−1 or mL
  Concentration of the radioactivity, Bone (femur): 1.95 ± 0.128 μg equiv·g^−1 or mL
  Concentration of the radioactivity, Bone marrow: 9.66 ± 0.367 μg equiv·g^−1 or mL
  Concentration of the radioactivity, Brain: 1.18 ± 0.030 μg equiv·g^−1 or mL
  Concentration of the radioactivity, Eyes: 0.346 ± 0.029 μg equiv·g^−1 or mL
  Concentration of the radioactivity, Fat: 0.861 ± 0.096 μg equiv·g^−1 or mL
  Concentration of the radioactivity, Harderian glands: 1.15 ± 0.357 μg equiv·g^−1 or mL
  Concentration of the radioactivity, Heart: 6.33 ± 0.512 μg equiv·g^−1 or mL
  Concentration of the radioactivity, Intestine: 1.47 ± 0.158 μg equiv·g^−1 or mL
  Concentration of the radioactivity, Kidneys: 11.2 ± 1.48 μg equiv·g^−1 or mL
  Concentration of the radioactivity, Liver: 7.03 ± 0.613 μg equiv·g^−1 or mL
  Concentration of the radioactivity, Lungs: 8.46 ± 0.824 μg equiv·g^−1 or mL
  Concentration of the radioactivity, Pancreas: 2.56 ± 0.036 μg equiv·g^−1 or mL
  Concentration of the radioactivity, Pituitary: 13.2 ± 1.08 μg equiv·g^−1 or mL
  Concentration of the radioactivity, Plasma: 131 ± 3.86 μg equiv·g^−1 or mL
  Concentration of the radioactivity, Skeletal muscle: 0.569 ± 0.100 μg equiv·g^−1 or mL
  Concentration of the radioactivity, Skin: 0.376 ± 0.103 μg equiv·g^−1 or mL
  Concentration of the radioactivity, Spinal cord: 0.909 ± 0.289 μg equiv·g^−1 or mL
  Concentration of the radioactivity, Spleen: 4.62 ± 0.185 μg equiv·g^−1 or mL
  Concentration of the radioactivity, Stomach: 1.32 ± 0.257 μg equiv·g^−1 or mL
  Concentration of the radioactivity, Submandibular lymph nodes: 2.57 ± 0.038 μg equiv·g^−1 or mL
  Concentration of the radioactivity, Testes: 1.14 ± 0.083 μg equiv·g^−1 or mL
  Concentration of the radioactivity, Thymus: 0.669 ± 0.115 μg equiv·g^−1 or mL
  Concentration of the radioactivity, Thyroid gland: 8.25 ± 1.42 μg equiv·g^−1 or mL
  Concentration of the radioactivity, Urinary bladder: 2.40 ± 1.32 μg equiv·g^−1 or mL
[3]
  Concentration of the radioactivity, Adrenals: 7.83 ± 1.38 μg equiv·g^−1 or mL
  Concentration of the radioactivity, Blood: 60.9 ± 4.36 μg equiv·g^−1 or mL
  Concentration of the radioactivity, Bone (femur): 1.53 ± 0.555 μg equiv·g^−1 or mL
  Concentration of the radioactivity, Bone marrow: 8.66 ± 2.79 μg equiv·g^−1 or mL
  Concentration of the radioactivity, Brain: 0.939 ± 0.015 μg equiv·g^−1 or mL
  Concentration of the radioactivity, Eyes: 0.779 ± 0.168 μg equiv·g^−1 or mL
  Concentration of the radioactivity, Fat: 0.923 ± 0.308 μg equiv·g^−1 or mL
  Concentration of the radioactivity, Harderian glands: 1.91 ± 0.183 μg equiv·g^−1 or mL
  Concentration of the radioactivity, Heart: 7.71 ± 1.29 μg equiv·g^−1 or mL
  Concentration of the radioactivity, Intestine: 3.07 ± 0.233 μg equiv·g^−1 or mL
  Concentration of the radioactivity, Kidneys: 10.6 ± 1.16 μg equiv·g^−1 or mL
  Concentration of the radioactivity, Liver: 7.51 ± 0.438 μg equiv·g^−1 or mL
  Concentration of the radioactivity, Lungs: 8.37 ± 1.27 μg equiv·g^−1 or mL
  Concentration of the radioactivity, Pancreas: 3.83 ± 0.582 μg equiv·g^−1 or mL
  Concentration of the radioactivity, Pituitary: 13.9 ± 2.71 μg equiv·g^−1 or mL
  Concentration of the radioactivity, Plasma: 99.6 ± 2.94 μg equiv·g^−1 or mL
  Concentration of the radioactivity, Skeletal muscle: 0.447 ± 0.037 μg equiv·g^−1 or mL
  Concentration of the radioactivity, Skin: 1.41 ± 0.175 μg equiv·g^−1 or mL
  Concentration of the radioactivity, Spinal cord: 0.662 ± 0.070 μg equiv·g^−1 or mL
  Concentration of the radioactivity, Spleen: 5.51 ± 0.776 μg equiv·g^−1 or mL
  Concentration of the radioactivity, Stomach: 2.69 ± 0.013 μg equiv·g^−1 or mL
  Concentration of the radioactivity, Submandibular lymph nodes: 4.25 ± 0.140 μg equiv·g^−1 or mL
  Concentration of the radioactivity, Testes: 4.01 ± 0.254 μg equiv·g^−1 or mL
  Concentration of the radioactivity, Thymus: 1.02 ± 0.040 μg equiv·g^−1 or mL
  Concentration of the radioactivity, Thyroid gland: 10.1 ± 1.79 μg equiv·g^−1 or mL
  Concentration of the radioactivity, Urinary bladder: 3.53 ± 0.234 μg equiv·g^−1 or mL
[4]
  Concentration of the radioactivity, Adrenals: 10.0 ± 1.15 μg equiv·g^−1 or mL
  Concentration of the radioactivity, Blood: 39.7 ± 2.51 μg equiv·g^−1 or mL
  Concentration of the radioactivity, Bone (femur): 1.16 ± 0.177 μg equiv·g^−1 or mL
  Concentration of the radioactivity, Bone marrow: 8.50 ± 1.23 μg equiv·g^−1 or mL
  Concentration of the radioactivity, Brain: 0.646 ± 0.050 μg equiv·g^−1 or mL
  Concentration of the radioactivity, Eyes: 0.806 ± 0.063 μg equiv·g^−1 or mL
  Concentration of the radioactivity, Fat: 1.65 ± 0.392 μg equiv·g^−1 or mL
  Concentration of the radioactivity, Harderian glands: 2.55 ± 0.105 μg equiv·g^−1 or mL
  Concentration of the radioactivity, Heart: 6.28 ± 0.256 μg equiv·g^−1 or mL
  Concentration of the radioactivity, Intestine: 3.10 ± 0.144 μg equiv·g^−1 or mL
  Concentration of the radioactivity, Kidneys: 8.75 ± 1.47 μg equiv·g^−1 or mL
  Concentration of the radioactivity, Liver: 9.26 ± 0.516 μg equiv·g^−1 or mL
  Concentration of the radioactivity, Lungs: 7.22 ± 0.464 μg equiv·g^−1 or mL
  Concentration of the radioactivity, Pancreas: 5.14 ± 0.582 μg equiv·g^−1 or mL
  Concentration of the radioactivity, Pituitary: 13.7 ± 2.02 μg equiv·g^−1 or mL
  Concentration of the radioactivity, Plasma: 64.1 ± 5.12 μg equiv·g^−1 or mL
  Concentration of the radioactivity, Skeletal muscle: 0.584 ± 0.044 μg equiv·g^−1 or mL
  Concentration of the radioactivity, Skin: 3.29 ± 0.308 μg equiv·g^−1 or mL
  Concentration of the radioactivity, Spinal cord: 0.442 ± 0.090 μg equiv·g^−1 or mL
  Concentration of the radioactivity, Spleen: 10.2 ± 1.04 μg equiv·g^−1 or mL
  Concentration of the radioactivity, Stomach: 3.01 ± 0.168 μg equiv·g^−1 or mL
  Concentration of the radioactivity, Submandibular lymph nodes: 5.72 ± 0.303 μg equiv·g^−1 or mL
  Concentration of the radioactivity, Testes: 4.15 ± 0.605 μg equiv·g^−1 or mL
  Concentration of the radioactivity, Thymus: 1.90 ± 0.201 μg equiv·g^−1 or mL
  Concentration of the radioactivity, Thyroid gland: 10.2 ± 1.10 μg equiv·g^−1 or mL
  Concentration of the radioactivity, Urinary bladder: 6.18 ± 0.260 μg equiv·g^−1 or mL
After 24 h, in most tissues
  tissue to plasma ratios: > 1
Through at least 24 h after dosing
  tissue to plasma ratios: < 1
